This experiment addresses Nme2Cas9 expressed from plasmid in HEK293T cells (human-codon-optimized, NLSs and 3xHA tag) (Neisseria meningitidis strain De11444). As to the kind of experiment: cell-based or functional assay.

For AcrIIC1Nme, the genome editing in HEK293T cells at varied ratios of Acr plasmid to Cas9 plasmid: ratio giving full inhibition (mass ratio Acr plasmid:Nme2Cas9 plasmid) is 2. The result for AcrIIC4Hpa reads 1.

These data come from patent US20240408238A1.
